Values belong to the sequence of their own block, whether it stands above or below them.
Legend:
[1] = target: HLA-B*15:01; test: IEDB peptide-MHC binding, purified MHC/competitive/fluorescence; ≥ and ≤ were set here for values at or beyond the usual limits of such assays
[2] = target: HLA-A*24:02; test: as above
[3] = target: HLA-A*03:01; test: as above
[4] = target: HLA-A*11:01; test: as above
[5] = target: HLA-A*03:01; test: IEDB peptide-MHC binding, purified MHC/competitive/fluorescence; filed as Kd, often an IC50 or EC50 that approximates it; ≥ and ≤ were set here for values at or beyond the usual limits of such assays
[6] = target: HLA-B*07:02; test: IEDB peptide-MHC binding, purified MHC/competitive/radioactivity; filed as Kd, often an IC50 or EC50 that approximates it; ≥ and ≤ were set here for values at or beyond the usual limits of such assays
[7] = target: HLA-B*54:01; test: as above
[8] = target: HLA-B*35:01; test: as above
[9] = target: HLA-B*53:01; test: as above
[10] = target: HLA-B*51:01; test: as above
[11] = target: HLA-B*15:01; test: as above; conditions: source organism: Dengue virus 1 Brazil/97-11/1997
[12] = target: HLA-A*01:01; test: as above; conditions: source organism: Dengue virus 1 Brazil/97-11/1997
[13] = target: HLA-A*30:02; test: as above; conditions: source organism: Dengue virus 1 Brazil/97-11/1997
[14] = target: HLA-A*30:01; test: as above; conditions: source organism: Dengue virus 1 Brazil/97-11/1997
[15] = target: HLA-A*26:01; test: as above; conditions: source organism: Dengue virus 1 Brazil/97-11/1997
[16] = target: HLA-A*02:01; test: IEDB peptide-MHC binding, purified MHC/competitive/fluorescence; ≥ and ≤ were set here for values at or beyond the usual limits of such assays
[17] = target: HLA-B*27:03; test: IEDB peptide-MHC binding, purified MHC/competitive/fluorescence; filed as Kd, often an IC50 or EC50 that approximates it; ≥ and ≤ were set here for values at or beyond the usual limits of such assays; conditions: source organism: Reston ebolavirus - Reston (1989)
[18] = target: HLA-B*57:01; test: as above; conditions: source organism: Reston ebolavirus - Reston (1989)
[19] = target: HLA-B*39:01; test: as above; conditions: source organism: Reston ebolavirus - Reston (1989)
[20] = target: HLA-B*46:01; test: as above; conditions: source organism: Reston ebolavirus - Reston (1989)
[21] = target: HLA-B*18:01; test: as above; conditions: source organism: Reston ebolavirus - Reston (1989)
[22] = target: HLA-B*51:01; test: as above; conditions: source organism: Reston ebolavirus - Reston (1989)
[23] = target: HLA-A*26:01; test: as above; conditions: source organism: Reston ebolavirus - Reston (1989)
[24] = target: HLA-A*02:01; test: IEDB peptide-MHC binding, purified MHC/direct/fluorescence; filed as Kd, often an IC50 or EC50 that approximates it; ≥ and ≤ were set here for values at or beyond the usual limits of such assays; conditions: source organism: Reston ebolavirus - Reston
[25] = source organism: Zaire ebolavirus
[26] = source organism: Vaccinia virus
[27] = source organism: Mammarenavirus lassaense
[28] = source organism: Vaccinia virus Copenhagen
[29] = source organism: Mammarenavirus juninense
[30] = source organism: Vaccinia virus WR
[31] = source organism: Triticum aestivum

Sequence: AQREIFSAW
IC50 ([1]; source organism: Variola virus): 6520 nM
IC50 ([2]; source organism: Variola virus): 38.6 nM

Sequence: CAGDFAFHK
IC50 [3, 25]: 63900 nM
IC50 [4, 25]: 1390 nM

Sequence: CLRIPMTDH
Kd ([5]; source organism: Listeria monocytogenes EGD-e): ≥ 20000 nM

Sequence: EKSSKYYIK
IC50 [4, 26]: ≥ 79000 nM
IC50 [2, 26]: ≥ 145000 nM

Sequence: FPAGLTYSQL
Kd [6, 27]: 155 nM
Kd [7, 27]: 603 nM
Kd [8, 27]: 115 nM
Kd [9, 27]: 111 nM
Kd [10, 27]: 8280 nM

Sequence: FPAIFSAEV
Kd [6, 27]: 65.3 nM
Kd [7, 27]: 6.94 nM
Kd [8, 27]: 16.8 nM
Kd [9, 27]: 40.4 nM
Kd [10, 27]: 85.6 nM

Sequence: FTMAHRKPTY
Kd [11]: 313 nM
Kd [12]: 9160 nM
Kd ([8]; source organism: Dengue virus 1 Brazil/97-11/1997): 698 nM
Kd [13]: 744 nM
Kd [14]: 2270 nM
Kd [15]: 476 nM

Sequence: GAMVEYVSA
IC50 [1, 28]: 25500 nM
IC50 [16, 28]: 33400 nM

Kd ([5]; source organism: Escherichia coli 536): ≥ 20000 nM
Sequence: GISRNTVKR

Sequence: HPDMDSLMI
Kd [6, 29]: 1720 nM
Kd [7, 29]: ≥ 23200 nM
Kd [8, 29]: 2010 nM
Kd [9, 29]: 79.6 nM
Kd [10, 29]: 2900 nM

Sequence: IIHDFVDKT
IC50 [4, 25]: ≥ 148000 nM
IC50 [2, 25]: ≥ 287000 nM
IC50 [16, 25]: 14100 nM

Sequence: KAALSSLAK
IC50 [1, 25]: ≥ 110000 nM
IC50 [3, 25]: 5420 nM
IC50 [4, 25]: 483 nM

Sequence: KLSLTKLFS
IC50 ([3]; source organism: Variola virus): 33600 nM
IC50 ([16]; source organism: Variola virus): 2940 nM

Sequence: KLSYRNKPS
IC50 [3, 26]: ≥ 282000 nM
IC50 [16, 26]: ≥ 196000 nM

Sequence: KMARAGLGK
Kd ([5]; source organism: Burkholderia vietnamiensis G4): 20.2 nM

Sequence: KPVSDLYTSM
Kd [6, 30]: 0.297 nM
Kd [7, 30]: 10700 nM
Kd [8, 30]: 34.9 nM
Kd [9, 30]: 56.6 nM
Kd [10, 30]: ≥ 69600 nM

Sequence: KVHAVLTEK
Kd ([5]; source organism: Vibrio parahaemolyticus K5030): 20.6 nM

Sequence: LFGIKCIKK
IC50 [3, 26]: 31700 nM
IC50 [4, 26]: 8170 nM

Sequence: LIMEFNSLL
Kd [17]: ≥ 20000 nM
Kd [18]: ≥ 20000 nM
Kd [19]: ≥ 20000 nM
Kd [20]: ≥ 20000 nM
Kd [21]: ≥ 20000 nM
Kd [22]: ≥ 20000 nM
Kd [23]: ≥ 20000 nM
Kd [24]: 5.2 nM

Kd [6, 31]: 685 nM
Kd [7, 31]: 182 nM
Kd [8, 31]: 1100 nM
Kd [9, 31]: 18.2 nM
Kd [10, 31]: 272 nM
Sequence: LPAMCNVYI

Sequence: LPESDLDKVY
Kd [6, 30]: ≥ 69600 nM
Kd [7, 30]: 10600 nM
Kd [8, 30]: 79 nM
Kd [9, 30]: 513 nM
Kd [10, 30]: ≥ 54100 nM
